Results taken from publication PMC11417369, “DNA sequence and chromatin differentiate sequence-specific transcription factor binding in the human malaria parasite Plasmodium falciparum”.

T1: HDP1 homeodomain-like (Plasmodium falciparum, UniProt Q8IKH4 2990-3078)
T1 sequence: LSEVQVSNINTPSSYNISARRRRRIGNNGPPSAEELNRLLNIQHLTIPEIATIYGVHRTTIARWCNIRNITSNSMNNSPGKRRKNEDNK

B1: GTGCAC_site10461 (dsDNA)
DNA 1: TTTATACATACATTCGTGCACATACGTATAACATAT
DNA 2: ATATGTTATACGTATGTGCACGAATGTATGTATAAA
B2: GTGCAC_site10319 (dsDNA)
DNA 1: TCATTTTAAATATGTGTGCACGTTATAATTTACACA
DNA 2: TGTGTAAATTATAACGTGCACACATATTTAAAATGA
B3: GTGCAC_site10307 (dsDNA)
DNA 1: AAATAATTAGAAATAGTGCACATAATTAAGGGATAC
DNA 2: GTATCCCTTAATTATGTGCACTATTTCTAATTATTT
B4: GTGCAC_site10156 (dsDNA)
DNA 1: ACCATATAAAGTTAGGTGCATTTGTATGTATCTTAC
DNA 2: GTAAGATACATACAAATGCACCTAACTTTATATGGT
B5: GTGCAC_site10212 (dsDNA)
DNA 1: TATATATATATATATGTGCACATATATATGATATTA
DNA 2: TAATATCATATATATGTGCACATATATATATATATA
B6: GTGCAC_site10696 (dsDNA)
DNA 1: AATGACTACATAATAGTGCAATATTAAAGAAAATTA
DNA 2: TAATTTTCTTTAATATTGCACTATTATGTAGTCATT
B7: GTGCAC_site9497 (dsDNA)
DNA 1: TAATTGAGCAAATGAGTGCACAGCATAAAGTATAGT
DNA 2: ACTATACTTTATGCTGTGCACTCATTTGCTCAATTA
B8: GTGCAC_site10138 (dsDNA)
DNA 1: TATTTATAAATATGTGTGCACAATTTATTTTATAAT
DNA 2: ATTATAAAATAAATTGTGCACACATATTTATAAATA
B9: GTGCAC_site9886 (dsDNA)
DNA 1: ATTTATTTATATTTAGTGCAATACTATTTTTAAATA
DNA 2: TATTTAAAAATAGTATTGCACTAAATATAAATAAAT
B10: GTGCAC_site10596 (dsDNA)
DNA 1: AAAATTTATAGTATGGTGCATAAAAATATATATATA
DNA 2: TATATATATATTTTTATGCACCATACTATAAATTTT
B11: GTGCAC_site9646 (dsDNA)
DNA 1: TGTATATATATCTCAGTGCATTGCAAATTAAAAATT
DNA 2: AATTTTTAATTTGCAATGCACTGAGATATATATACA
B12: GTGCAC_site10480 (dsDNA)
DNA 1: GGTATTTATGGACGCGTGCACACACATATGAACAAA
DNA 2: TTTGTTCATATGTGTGTGCACGCGTCCATAAATACC
B13: GTGCAC_site10318 (dsDNA)
DNA 1: ATATATATATATATAGTGCAAATATCTTCTTTATAA
DNA 2: TTATAAAGAAGATATTTGCACTATATATATATATAT
B14: GTGCAC_site10231 (dsDNA)
DNA 1: TTCCAAGAAATAATAGTGCATTATTCATTTTAATAA
DNA 2: TTATTAAAATGAATAATGCACTATTATTTCTTGGAA
B15: GTGCAC_site9581 (dsDNA)
DNA 1: TTATTACACACATATGTGCACATATAAAAGTACACG
DNA 2: CGTGTACTTTTATATGTGCACATATGTGTGTAATAA
B16: GTGCAC_site10384 (dsDNA)
DNA 1: TTTTCTTGGTTCAGTGTGCACTTATATATATATATA
DNA 2: TATATATATATATAAGTGCACACTGAACCAAGAAAA
B17: GTGCAC_site10104 (dsDNA)
DNA 1: CTTATAAGAATACTAGTGCACATAATTTAACGAAAA
DNA 2: TTTTCGTTAAATTATGTGCACTAGTATTCTTATAAG
B18: GTGCAC_site9634 (dsDNA)
DNA 1: AAATTGAGACAACAGGTGCATATAAATATACAGTGT
DNA 2: ACACTGTATATTTATATGCACCTGTTGTCTCAATTT
B19: GTGCAC_site10127 (dsDNA)
DNA 1: ACATATAAATATTGTGTGCACACACATAATATATAT
DNA 2: ATATATATTATGTGTGTGCACACAATATTTATATGT
B20: GTGCAC_site10672 (dsDNA)
DNA 1: AATTTCAAATTGTATGTGCACATGTAGAAGTACTTT
DNA 2: AAAGTACTTCTACATGTGCACATACAATTTGAAATT
B21: GTGCAC_site9584 (dsDNA)
DNA 1: TGTAATAATATTTATGTGCACATATATTAAACTATA
DNA 2: TATAGTTTAATATATGTGCACATAAATATTATTACA
B22: GTGCAC_site10676 (dsDNA)
DNA 1: TTTTGTTATTTTTTAGTGCATATAAAGGTTGTTAAG
DNA 2: CTTAACAACCTTTATATGCACTAAAAAATAACAAAA
B23: GTGCAC_site9948 (dsDNA)
DNA 1: CTTAAATTAATTTGGGTGCATATATTTGTACACATT
DNA 2: AATGTGTACAAATATATGCACCCAAATTAATTTAAG
B24: GTGCAC_site10288 (dsDNA)
DNA 1: ATAGATCCTAATGTTGTGCACATGTAAATTAATATA
DNA 2: TATATTAATTTACATGTGCACAACATTAGGATCTAT
B25: GTGCAC_site9631 (dsDNA)
DNA 1: AAAAATAATCATTAGGTGCAAAAAATATATATATAT
DNA 2: ATATATATATATTTTTTGCACCTAATGATTATTTTT
B26: GTGCAC_site10120 (dsDNA)
DNA 1: AAAAACAAACTGTGCATGCACCAAAAAAAAAAAAAA
DNA 2: TTTTTTTTTTTTTTGGTGCATGCACAGTTTGTTTTT
B27: GTGCAC_site10777 (dsDNA)
DNA 1: ATAATATATACGTGTGTGCACATGACAAAAGCATAT
DNA 2: ATATGCTTTTGTCATGTGCACACACGTATATATTAT
B28: GTGCAC_site10550 (dsDNA)
DNA 1: TAAACGTTAGTATGTGTGCACATTAGTAATTTAAAA
DNA 2: TTTTAAATTACTAATGTGCACACATACTAACGTTTA
B29: GTGCAC_site9492 (dsDNA)
DNA 1: GTCAACAAGAATTAAGTGCATAATTTTTTATTAAAT
DNA 2: ATTTAATAAAAAATTATGCACTTAATTCTTGTTGAC
B30: GTGCAC_site10425 (dsDNA)
DNA 1: CATGAGGTATAAAAGGTGCAAATTAATGAGAACATT
DNA 2: AATGTTCTCATTAATTTGCACCTTTTATACCTCATG
B31: GTGCAC_site10617 (dsDNA)
DNA 1: GAGGTCTTTTTTAATGTGCACATATATATATATATA
DNA 2: TATATATATATATATGTGCACATTAAAAAAGACCTC
B32: GTGCAC_site9799 (dsDNA)
DNA 1: TATTATAATATATTTGTGCACATAATATCTCCGCTA
DNA 2: TAGCGGAGATATTATGTGCACAAATATATTATAATA
B33: GTGCAC_site9715 (dsDNA)
DNA 1: TTTTTTAAATTGGTAGTGCAATATGATTGAACAAAA
DNA 2: TTTTGTTCAATCATATTGCACTACCAATTTAAAAAA
B34: GTGCAC_site10546 (dsDNA)
DNA 1: ATGAAATATTTATTTGTGCACTTAATTTGTTGGAAA
DNA 2: TTTCCAACAAATTAAGTGCACAAATAAATATTTCAT
B35: GTGCAC_site10106 (dsDNA)
DNA 1: ATATTTTATATATTTGTGCACAATATTATAATATAT
DNA 2: ATATATTATAATATTGTGCACAAATATATAAAATAT
B36: GTGCAC_site9397 (dsDNA)
DNA 1: TGTGTTAGCAAAAAAGTGCACAGGGAAAAAAAAATA
DNA 2: TATTTTTTTTTCCCTGTGCACTTTTTTGCTAACACA
B37: GTGCAC_site10725 (dsDNA)
DNA 1: TTTTGTTATTTTGAAGTGCACTTTCCACTTAATATA
DNA 2: TATATTAAGTGGAAAGTGCACTTCAAAATAACAAAA
B38: GTGCAC_site9469 (dsDNA)
DNA 1: ACAAAAAAAAACGTGGTGCATTAATAATATTGTATA
DNA 2: TATACAATATTATTAATGCACCACGTTTTTTTTTGT
B39: GTGCAC_site10060 (dsDNA)
DNA 1: TCTTTTTCTTCTTATGTGCACATCAATTATGCTTCT
DNA 2: AGAAGCATAATTGATGTGCACATAAGAAGAAAAAGA
B40: GTGCAC_site9657 (dsDNA)
DNA 1: CATAATTTAAAAAAGGTGCAAAATGGATAATATATA
DNA 2: TATATATTATCCATTTTGCACCTTTTTTAAATTATG
B41: GTGCAC_site9416 (dsDNA)
DNA 1: TTTCAAAAAAATAATGTGCACATTAGAAAATAAATA
DNA 2: TATTTATTTTCTAATGTGCACATTATTTTTTTGAAA
B42: GTGCAC_site10605 (dsDNA)
DNA 1: GAAGTAGATGGAAAAGTGCACTGTAATGGTTATATT
DNA 2: AATATAACCATTACAGTGCACTTTTCCATCTACTTC
B43: GTGCAC_site9637 (dsDNA)
DNA 1: GGAAAATATGTTTGTGTGCACAGCTAGCTATTTGTA
DNA 2: TACAAATAGCTAGCTGTGCACACAAACATATTTTCC
B44: GTGCAC_site9435 (dsDNA)
DNA 1: ATATTTTGTTTTATAGTGCACATGGGCATATATTAA
DNA 2: TTAATATATGCCCATGTGCACTATAAAACAAAATAT

What follows are binders tested against T1, HDP1 homeodomain-like (assay: gcPBM; about 25 ug protein; PBS, 1% milk, 0.2 mg/ml BSA, salmon testes DNA, 0.03% Triton X-100). Conditions: tags: N-terminal GST (pGEX-4T-1), kept; chain copies: 2; label: surface-attached array probe.
For B1, the binding signal was 10.1 ln median PBM intensity, better of two orientations. For B2, the binding signal was 9.66 ln median PBM intensity, better of two orientations. In the case of B3, the binding signal is reported as 10.9 ln median PBM intensity, better of two orientations. In the case of B4, the binding signal is reported as 9.55 ln median PBM intensity, better of two orientations. With B5 the binding signal was 10.3 ln median PBM intensity, better of two orientations. In the case of B6, the binding signal is reported as 10.4 ln median PBM intensity, better of two orientations. With B7 the binding signal was 10.7 ln median PBM intensity, better of two orientations. For B8, the binding signal was 11 ln median PBM intensity, better of two orientations. For B9, the binding signal was 9.95 ln median PBM intensity, better of two orientations. With B10 the binding signal was 10.6 ln median PBM intensity, better of two orientations. For B11, the binding signal was 9.68 ln median PBM intensity, better of two orientations. With B12 the binding signal was 10.4 ln median PBM intensity, better of two orientations. For B13, the binding signal was 9.8 ln median PBM intensity, better of two orientations. For B14, the binding signal was 9.61 ln median PBM intensity, better of two orientations. In the case of B15, the binding signal is reported as 11.1 ln median PBM intensity, better of two orientations. With B16 the binding signal was 10.2 ln median PBM intensity, better of two orientations. For B17, the binding signal was 10 ln median PBM intensity, better of two orientations. For B18, the binding signal was 9.49 ln median PBM intensity, better of two orientations. For B19, the binding signal was 10.5 ln median PBM intensity, better of two orientations. With B20 the binding signal was 11.1 ln median PBM intensity, better of two orientations. B21 was tested, and the binding signal was 11.1 ln median PBM intensity, better of two orientations. With B22 the binding signal was 9.65 ln median PBM intensity, better of two orientations. In the case of B23, the binding signal is reported as 9.77 ln median PBM intensity, better of two orientations. B24 was tested, and the binding signal was 11 ln median PBM intensity, better of two orientations. B25 was tested, and the binding signal was 9.83 ln median PBM intensity, better of two orientations. B26 was tested, and the binding signal was 10.3 ln median PBM intensity, better of two orientations. With B27 the binding signal was 11.1 ln median PBM intensity, better of two orientations. B28 was tested, and the binding signal was 10.6 ln median PBM intensity, better of two orientations. In the case of B29, the binding signal is reported as 9.67 ln median PBM intensity, better of two orientations. For B30, the binding signal was 9.91 ln median PBM intensity, better of two orientations. With B31 the binding signal was 11 ln median PBM intensity, better of two orientations. For B32, the binding signal was 11.1 ln median PBM intensity, better of two orientations. B33 was tested, and the binding signal was 9.52 ln median PBM intensity, better of two orientations. In the case of B34, the binding signal is reported as 9.86 ln median PBM intensity, better of two orientations. With B35 the binding signal was 10.8 ln median PBM intensity, better of two orientations. In the case of B36, the binding signal is reported as 9.59 ln median PBM intensity, better of two orientations. In the case of B37, the binding signal is reported as 10.7 ln median PBM intensity, better of two orientations. For B38, the binding signal was 9.75 ln median PBM intensity, better of two orientations. In the case of B39, the binding signal is reported as 10.8 ln median PBM intensity, better of two orientations. In the case of B40, the binding signal is reported as 10.1 ln median PBM intensity, better of two orientations. For B41, the binding signal was 10.5 ln median PBM intensity, better of two orientations. B42 was tested, and the binding signal was 10.6 ln median PBM intensity, better of two orientations. In the case of B43, the binding signal is reported as 11 ln median PBM intensity, better of two orientations. B44 was tested, and the binding signal was 9.71 ln median PBM intensity, better of two orientations.
